Results as given in patent US20050222400, “Aptamer constructs” (published 2005).

B1: aptamer 80.55,65 (ssRNA)
RNA: AGCUCGAGCUCGAAUUCAUUUAAUUCCAUAAUGGCUCACCACAAGGGGAACGUUGAUGAAAUAGGGCCCGGAUCCGUC
B2: aptamer 70.8,13 (ssRNA)
RNA: AGCUCGAGCUCGAAUUCAAAGAGAUCUGGCAGUGUCACAACCAGGAAAAAGACACGACGAACGGGCCCGGAUCCGUC
B3: aptamer 1.1 (ssRNA)
RNA: AGCUCGAGCUCGAAUUCGGGAGAUUCCGUUUUCAGUCCGGGAAAAACUGAAGGGCCCGGAUCCGUC
B4: aptamer 70.28t34 (ssRNA)
RNA: AGCUCGAGCUCGAAUUCGGGAACCGGACGGGUGAGAACCGAGACAAACACCGGGCCCGGAUCCGUC
B5: aptamer 70.15 (ssRNA)
RNA: AGCUCGAGCUCGAAUUCCCUACGAACCCAGGAGAUAAGGGGGAAAACUCUGGAAAACGGGCCCGGAUCCGUC
B6: aptamer 70.28 (ssRNA)
RNA: AGCUCGAGCUCGAAUUCACAAGAACCGGACCGGGUGAGAACCGAGACAAACACCCACCAAGAGGGCCCGGAUCCGUC

Tests used:
[1] = molecular target: T1, HIV-1 reverse transcriptase (RT) (HIV-1, UniProt P04585;P04585 P04585:588-1147,P04585:588-1027); experiment: inhibition; RT activity, 80 mM KCl, 6 mM MgCl2, pH 8.0, 37 C
Experimental: (§1) In vitro RT inhibition. To determine the IC₅₀ values, self-cleaved RNA aptamers were gel purified and eluted in 500 mM NH₄OAc/1 mM EDTA/0.2% SDS. RNA was then treated with phenol/chloroform and ethanol precipitated. RT reactions (50 μl) contained 80 mM KCl, 50 mM Tris-Cl (pH 8.0), 6 mM MgCl₂, 1 mM dithiothreitol (DTT), 0.1 mg/ml BSA, 10 μM […], 25 μM each of the remaining three dNTPs, and a range of concentrations of RNA aptamers (1 nM to 1000 nM). Reactions were incubated at 37° C. for 15 min. Reactions initiated by the addition of 25 ng of purified HIV-1 RT and at the end of the reaction, aliquots were spotted onto DE81 filter paper and washed with 2×SSC (30 mM Sodium Citrate, 300 mM NaCl pH 7.0). Dried filters were then counted and individual IC₅₀s were determined by fitting results to a dose-response curve using nonlinear regression (GraphPad Software Inc., San Diego, Calif.).
(§2) Next, the ability of each of the 10 selected RNA aptamers to inhibit recombinant purified HIV-1 RT was evaluated in vitro and the degree of inhibition (IC₅₀) by each aptamer was determined. In vitro transcription of the primary transcripts with T3 RNA polymerase was followed by gel purification of the processed aptamers. The IC₅₀s calculated ranged from 89 nM to >1000 nM (Table 1). Six RNA aptamers were selected for further studies, to test their effectiveness in inhibiting HIV-1 replication.

[2] = molecular target: T1, HIV-1 reverse transcriptase (RT); experiment: EMSA; 50 mM KCl, 25 mM NaCl, 5% glycerol, BSA, 25 C
Experimental: (§3) Radiolabeled, processed RNA aptamers were gel purified and eluted in 500 mM NH₄OAc/1 mM EDTA/0.2% SDS. RNA was then treated with phenouchloroform and ethanol precipitated. Electrophoretic mobility shift assays were performed by incubating 10 fmol purified RNA aptamer with increasing amounts of purified HIV-1 RT at 25° C. in 10 μl of buffer containing 50 mM KCl, 25 mM NaCl, 5% glycerol, 300 μg/ml BSA. The reaction products were electrophoresed on native polyacrylamide gels. Dried gels were exposed to a phosphorimager screen and Kd calculated by using the ImageQuant software. To determine the binding strengths, the percentage of band shift observed with increasing concentrations of RT (1 nM to 500 nM), with respect to the no protein control lane, was first determined. The Kd values were determined by fitting data from three independent experiments to a dose response curve using nonlinear regression (Cann 1996) (GraphPad Software Inc.).
Therefore, the ability of each of the 10 selected RNA aptamers to bind recombinant purified HIV-1 RT was evaluated in vitro via an electrophoretic mobility shift assay (EMSA) and the dissociation constants determined for each individual aptamer in its processed form. In vitro transcription of the primary transcripts, with T3 RNA polymerase was followed by gel purification of the processed aptamers. The aptamer RNAs were incubated with increasing concentrations of purified recombinant HIV-1 RT, the reactions were resolved on a non-denaturing polyacrylamide gel (FIG. 3) and Kd values calculated based on the degree of band shift caused by the formation of RNA-protein complexes (see Methods section).

[3] = molecular target: T1, HIV-1 reverse transcriptase (RT); experiment: inhibition; RT activity, 80 mM KCl, 50 mM Tris pH 8.0, 6 mM MgCl2, 37 C; settings: pseudoknot-like potential stated for some aptamers
Experimental: as §1, §2

[4] = molecular target: T1, HIV-1 reverse transcriptase (RT); experiment: EMSA; 50 mM KCl, 25 mM NaCl, 5% glycerol, BSA, 25 C; processed RNA with flanks; settings: pseudoknot-like potential stated for some aptamers
Experimental: as §3
Therefore, the ability of each of the 10 selected RNA aptamers to bind recombinant purified HIV-1 RT was evaluated in vitro via an electrophoretic mobility shift assay (EMSA) and the dissociation constants determined for each individual aptamer in its processed form. In vitro transcription of the primary transcripts, with T3 RNA polymerase was followed by gel purification of the processed aptamers. […]

Binder	IC50 [1]	Kd [2]	further results
B1	143 nM	129 nM	
B2			IC50 [3]: 89 nM; Kd [4]: 27 nM
B3	607 nM	270 nM	
B4	327 nM	219 nM	
B5	159 nM	63 nM	
B6			IC50 ([1]; pseudoknot): 254 nM; Kd ([2]; pseudoknot): 201 nM
